Test results from patent US20210079109A1.

Columns and labels:
human CD63 (human) [1] = target: human CD63 (human) (UniProt P08962); test: ECL, U87MG cells; signal < 100 RLU, classed non-binder
human CD63 (human) [2] = target: human CD63 (human) (UniProt P08962); test: imaging of stained T47D cells, 10 ug/mL antibody
human CD63 (human) [3] = target: human CD63 (human) (UniProt P08962); test: flow cytometry, HEK293 cells

human CD63 (human), sequence (P08962 2-238 limits assumed): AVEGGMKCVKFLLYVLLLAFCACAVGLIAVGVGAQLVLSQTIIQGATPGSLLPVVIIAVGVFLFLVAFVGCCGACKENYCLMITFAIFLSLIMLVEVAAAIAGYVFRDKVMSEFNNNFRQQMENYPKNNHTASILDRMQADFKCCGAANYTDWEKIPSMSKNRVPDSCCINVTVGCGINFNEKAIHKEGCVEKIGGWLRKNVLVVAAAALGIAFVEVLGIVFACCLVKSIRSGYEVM

binding ratio at 3.7 nM vs NIH3T3 (human CD63 (human) [1]) [fold]	Total RFU at 4C (human CD63 (human) [2]) [RFU]	Total RFU at 37C (2 h) (human CD63 (human) [2]) [RFU]	S/N (MFI over no-antibody wells) (human CD63 (human) [3])	Substance
4	138000	-80500		Human IgG4 isotype control (antibody)
			1.5	Isotype Control 2 (antibody)
	-93900	57400		mIgG1 Isotype control (antibody)

Second part, the substance before the results:

Substance	binding ratio at 3.7 nM vs NIH3T3 (human CD63 (human) [1]) [fold]	Total RFU at 4C (human CD63 (human) [2]) [RFU]	Total RFU at 37C (2 h) (human CD63 (human) [2]) [RFU]	S/N (MFI over no-antibody wells) (human CD63 (human) [3])
Isotype Control 1 (antibody)				1.4
mIgG2a Isotype control (antibody)		-73400	65400	
